B1: Flag-tagged wild type LRRK2 (leucine-rich repeat kinase 2) [human] / Full length V5-tagged FADD [not stated] (parent complex)
chain 1: MASGSCQGCEEDEETLKKLIVRLNNVQEGKQIETLVQILEDLLVFTYSERASKLFQGKNIHVPLLIVLDSYMRVASVQQVGWSLLCKLIEVCPGTMQSLMGPQDVGNDWEVLGVHQLILKMLTVHNASVNLSVIGLKTLDLLLTSGKITLLILDEESDIFMLIFDAMHSFPANDEVQKLGCKALHVLFERVSEEQLTEFVENKDYMILLSALTNFKDEEEIVLHVLHCLHSLAIPCNNVEVLMSGNVRCYNIVVEAMKAFPMSERIQEVSCCLLHRLTLGNFFNILVLNEVHEFVVKAVQQYPENAALQISALSCLALLTETIFLNQDLEEKNENQENDDEGEEDKLFWLEACYKALTWHRKNKHVQEAACWALNNLLMYQNSLHEKIGDEDGHFPAHREVMLSMLMHSSSKEVFQASANALSTLLEQNVNFRKILLSKGIHLNVLELMQKHIHSPEVAESGCKMLNHLFEGSNTSLDIMAAVVPKILTVMKRHETSLPVQLEALRAILHFIVPGMPEESREDTEFHHKLNMVKKQCFKNDIHKLVLAALNRFIGNPGIQKCGLKVISSIVHFPDALEMLSLEGAMDSVLHTLQMYPDDQEIQCLGLSLIGYLITKKNVFIGTGHLLAKILVSSLYRFKDVAEIQTKGFQTILAILKLSASFSKLLVHHSFDLVIFHQMSSNIMEQKDQQFLNLCCKCFAKVAMDDYLKNVMLERACDQNNSIMVECLLLLGADANQAKEGSSLICQVCEKESSPKLVELLLNSGSREQDVRKALTISIGKGDSQIISLLLRRLALDVANNSICLGGFCIGKVEPSWLGPLFPDKTSNLRKQTNIASTLARMVIRYQMKSAVEEGTASGSDGNFSEDVLSKFDEWTFIPDSSMDSVFAQSDDLDSEGSEGSFLVKKKSNSISVGEFYRDAVLQRCSPNLQRHSNSLGPIFDHEDLLKRKRKILSSDDSLRSSKLQSHMRHSDSISSLASEREYITSLDLSANELRDIDALSQKCCISVHLEHLEKLELHQNALTSFPQQLCETLKSLTHLDLHSNKFTSFPSYLLKMSCIANLDVSRNDIGPSVVLDPTVKCPTLKQFNLSYNQLSFVPENLTDVVEKLEQLILEGNKISGICSPLRLKELKILNLSKNHISSLSENFLEACPKVESFSARMNFLAAMPFLPPSMTILKLSQNKFSCIPEAILNLPHLRSLDMSSNDIQYLPGPAHWKSLNLRELLFSHNQISILDLSEKAYLWSRVEKLHLSHNKLKEIPPEIGCLENLTSLDVSYNLELRSFPNEMGKLSKIWDLPLDELHLNFDFKHIGCKAKDIIRFLQQRLKKAVPYNRMKLMIVGNTGSGKTTLLQQLMKTKKSDLGMQSATVGIDVKDWPIQIRDKRKRDLVLNVWDFAGREEFYSTHPHFMTQRALYLAVYDLSKGQAEVDAMKPWLFNIKARASSSPVILVGTHLDVSDEKQRKACMSKITKELLNKRGFPAIRDYHFVNATEESDALAKLRKTIINESLNFKIRDQLVVGQLIPDCYVELEKIILSERKNVPIEFPVIDRKRLLQLVRENQLQLDENELPHAVHFLNESGVLLHFQDPALQLSDLYFVEPKWLCKIMAQILTVKVEGCPKHPKGIISRRDVEKFLSKKRKFPKNYMSQYFKLLEKFQIALPIGEEYLLVPSSLSDHRPVIELPHCENSEIIIRLYEMPYFPMGFWSRLINRLLEISPYMLSGRERALRPNRMYWRQGIYLNWSPEAYCLVGSEVLDNHPESFLKITVPSCRKGCILLGQVVDHIDSLMEEWFPGLLEIDICGEGETLLKKWALYSFNDGEEHQKILLDDLMKKAEEGDLLVNPDQPRLTIPISQIAPDLILADLPRNIMLNNDELEFEQAPEFLLGDGSFGSVYRAAYEGEEVAVKIFNKHTSLRLLRQELVVLCHLHHPSLISLLAAGIRPRMLVMELASKGSLDRLLQQDKASLTRTLQHRIALHVADGLRYLHSAMIIYRDLKPHNVLLFTLYPNAAIIAKIADYGIAQYCCRMGIKTSEGTPGFRAPEVARGNVIYNQQADVYSFGLLLYDILTTGGRIVEGLKFPNEFDELEIQGKLPDPVKEYGCAPWPMVEKLIKQCLKENPQERPTSAQVFDILNSAELVCLTRRILLPKNVIVECMVATHHNSRNASIWLGCGHTDRGQLSFLDLNTEGYTSEEVADSRILCLALVHLPVEKESWIVSGTQSGTLLVINTEDGKKRHTLEKMTDSVTCLYCNSFSKQSKQKNFLLVGTADGKLAIFEDKTVKLKGAAPLKILNIGNVSTPLMCLSESTNSTERNVMWGGCGTKIFSFSNDFTIQKLIETRTSQLFSYAAFSDSNIITVVVDTALYIAKQNSPVVEVWDKKTEKLCGLIDCVHFLREVMVKENKESKHKMSYSGRVKTLCLQKNTALWIGTGGGHILLLDLSTRRLIRVIYNFCNSVRVMMTAQLGSLKNVMLVLGYNRKNTEGTQKQKEIQSCLTVWDINLPHEVQNLEKHIEVRKELAEKMRRTSVE
chain 2: MDPFLVLLHSVSSSLSSSELTELKFLCLGRVGKRKLERVQSGLDLFSMLLEQNDLEPGHTELLRELLASLRRHDLLRRVDDFEAGAAAGAAPGEEDLCAAFNVICDNVGKDWRRLARQLKVSDTKIDSIEDRYPRNLTERVRESLRIWKNTEKENATVAHLVGALRSCQMNLVADLVQEVQQARDLQNRSGAMSPMSWNSDASTSEAS

Variants of: B1
Assay: ELISA (anti-Flag capture, anti-V5 detection); 15 μg of cell extract loaded in each well; parent: 0.61; read off a plot

response [anti-V5/Total LRRK2]	Variant
~1.7	chain 1 T1410M
~0.75	chain 1 R1441C

Further lines, the variant ahead of its results:

Variant	response [anti-V5/Total LRRK2]
chain 1 I2020T	~0.77
chain 1 G2019S	~1.2
chain 1 K544E	~1.2
chain 1 A211V	~0.91

Variants of: B1
Assay: co-immunoprecipitation (M2-Flag resin), quantified Western blot band intensity; HEK293T cells; Flag-LRRK2 and V5-FADD at a ratio of 4:1; three independent experiments; parent: 1; read off a plot

response	Variant
~2 norm. to Flag IP	chain 1 T1410M
~1.1 norm. to Flag IP	chain 1 R1441C

Continued, variant first:

Variant	response
chain 1 I2020T	~1.6 norm. to Flag IP
chain 1 G2019S	~1.3 norm. to Flag IP
chain 1 K544E	~1 norm. to Flag IP
chain 1 A211V	~1.7 norm. to Flag IP

Reference: article PMC5104429 (2016)
